# Assays:
# [1] = in vivo clearance (pharmacokinetic) studies in sham-operated and nephrectomised rats; details: intravenous 0.005 mg/kg; for clearance mechanism: sham-operated and nephrectomised rats, inferred from similar kinetics
# Method: The clearance mechanism of (i) the Di-PEG G-CSF product mixture (43 kDa total MW) comprising di-PEG 12kDa G-CSF and […] isoforms according to example A6 and of (ii) the single isoform, Di'-PEG 20kDa G-CSF conjugate (59 kDa total MW) according to example B, was tested in vivo in comparison to commercially available mono-pegylated G-CSF (Neulasta®)
# The in vivo studies were open randomized, parallel- grouped clearance studies of Neulasta® with either the Di-PEG G-CSF product mixture or the single di'-PEG 20kDa G-CSF conjugate isoform in sham-operated (control group) and nephrectomised rats. The studies were carried out by intravenous injection of 0.005 mg/kg of the conjugate to male rats. Four animals per group per time point were subjected to bleeding. The remaining G-CSF plasma concentration was determined in the serum samples and relevant pharmacokinetic data such as the plasma elimination half-life were calculated.
# [2] = test system: male rats; test: in vivo single dose biocomparability study of di-PEG G-CSF product with Neupogen and Neulasta (WBC and neutrophil counts); details: single subcutaneous injection 0.1 mg/kg
# Method: The di-PEG G-CSF product comprising a mixture of di- and di' PEG G-CSF conjugate isoforms according to the invention was tested in vivo, to show the improved activity versus unmodified G-CSF (Neupogen®) and to compare its biological activity with commercially available mono-pegylated G-CSF (Neulasta®).
# The in vivo study was an open randomized, parallel- grouped single dose biocomparability study of Neupogen® and Neulasta® with the di-PEG G-CSF product. It was carried out by subcutaneously injecting 0.1 mg/kg to male rats. Six animals per group per time point were subjected to bleeding. Serum samples were subjected to a complete blood count on the same day that the samples were collected. The average white blood cell counts and neutrophil counts were calculated.
# [3] = test system: male rats; test: in vivo single dose biocomparability study of Di'-PEG 20kDa G-CSF isoform with Neupogen and Neulasta (WBC and neutrophil counts); details: single subcutaneous injection 0.1 mg/kg; for average white blood cell counts (WBC) and WBC response: Figure 14; for average neutrophil counts and neutrophil response: Figure 15
# Method: For testing the biological activity of the Di'-PEG 20kDa G-CSF conjugate isoform in vivo, the single isoform was highly purified by preparative cation exchange chromatography. The defined product contained at least 95% di'-PEG G-CSF conjugate isoform as described in example A 6, paragraph d)ii). The in vivo study was an open randomized, parallel- grouped single dose biocomparability study of Neupogen® and Neulasta® with the single di'-PEG G-CSF conjugate isoform. It was carried out by subcutaneously injecting 0.1 mg/kg to male rats. Six animals per group per time point were subjected to bleeding. Serum samples were subjected to a complete blood count on the same day that the samples were collected. The average white blood cell counts and neutrophil counts were calculated.
# [4] = NE - nephrectomised rats, PK study Neulasta vs Di-PEG 12kDa G-CSF mixture
# [5] = SH - sham operated rats, PK study Neulasta vs Di-PEG 12kDa G-CSF mixture
# [6] = NE - nephrectomised rats, PK study Neulasta vs Di'-PEG 20kDa G-CSF isoform
# [7] = SH - sham operated rats, PK study Neulasta vs Di'-PEG 20kDa G-CSF isoform
# [8] = compared to unmodified G-CSF (Neupogen®)
Molecule,"Elimination half-life [1, 4]","Elimination half-life [1, 5]",clearance mechanism [1],"average white blood cell counts (WBC) ([2]; compared to Neulasta®, Figure 8)","average neutrophil counts ([2]; compared to Neulasta®, Figure 9)","average white blood cell counts (WBC) and WBC response ([2]; compared to unmodified G-CSF (Neupogen®), Figure 8)","average neutrophil counts and neutrophil response ([2]; compared to unmodified G-CSF (Neupogen®), Figure 9)","Elimination half-life [1, 6]","Elimination half-life [1, 7]",average white blood cell counts (WBC) and WBC response ([3]; compared to Neulasta®),average neutrophil counts and neutrophil response ([3]; compared to Neulasta®),"average white blood cell counts (WBC) and WBC response [3, 8]","average neutrophil counts and neutrophil response [3, 8]"
"Di-PEG 12kDa G-CSF mixture (conjugate, UniProt P09919 31-207, looked up, two 12 kDa PEG chains) Granulocyte …: TPLGPASSLPQSFLLKCLEQVRKIQGDGAALQEKLVSECATYKLCHPEELVLLGHSLGIPWAPLSSCPSQALQLAGCLSQLHSGLFLYQGLLQALEGISPELGPTLDTLQLDVADFATTIWQQMEELGMAPALQPTQGAMPAFASAFQRRAGGVLVASHLQSFLEVSYRVLRHLAQP",3.4 h,2.9 h,predominantly cleared by Neutrophil Receptor-mediated clearance,"at least biosimilar, perhaps potentially better, because of slightly higher maximum WBC and neutrophil counts","at least biosimilar, perhaps potentially better, because of slightly higher maximum WBC and neutrophil counts",higher WBC and neutrophil counts and longer sustained WBC and neutrophil response,higher WBC and neutrophil counts and longer sustained WBC and neutrophil response,–,–,–,–,–,–
"Di'-PEG 20kDa G-CSF isoform (conjugate, UniProt P09919 31-207, looked up, two 20 kDa PEG chains) Granulocyte …: TPLGPASSLPQSFLLKCLEQVRKIQGDGAALQEKLVSECATYKLCHPEELVLLGHSLGIPWAPLSSCPSQALQLAGCLSQLHSGLFLYQGLLQALEGISPELGPTLDTLQLDVADFATTIWQQMEELGMAPALQPTQGAMPAFASAFQRRAGGVLVASHLQSFLEVSYRVLRHLAQP",–,–,predominantly cleared by Neutrophil Receptor-mediated clearance,–,–,–,–,3.7 h,3.3 h,bioimproved because of higher maximum WBC and neutrophil counts and its sustained WBC and neutrophil response,bioimproved because of higher maximum WBC and neutrophil counts and its sustained WBC and neutrophil response,i) higher WBC and neutrophil counts and ii) showed a sustained WBC and neutrophil response,i) higher WBC and neutrophil counts and ii) showed a sustained WBC and neutrophil response
"Neulasta (conjugate, UniProt P09919 31-207, looked up, pegfilgrastim; N-terminal Met, 20 kDa PEG) Granulocyte …: TPLGPASSLPQSFLLKCLEQVRKIQGDGAALQEKLVSECATYKLCHPEELVLLGHSLGIPWAPLSSCPSQALQLAGCLSQLHSGLFLYQGLLQALEGISPELGPTLDTLQLDVADFATTIWQQMEELGMAPALQPTQGAMPAFASAFQRRAGGVLVASHLQSFLEVSYRVLRHLAQP",2.5 h,1.9 h,predominantly cleared by Neutrophil Receptor-mediated clearance,–,–,–,–,2.1 h,1.9 h,–,–,–,–

# — patent EP1834963A1, “Di-polymer protein conjugates and processes for their preparation” (priority 2006, dated 2007)
